# IntAct's records for PubMed 19118384
# B1: FAS-associated death domain protein (Homo sapiens), Q13158 (parent)
# chain: MDPFLVLLHSVSSSLSSSELTELKFLCLGRVGKRKLERVQSGLDLFSMLLEQNDLEPGHTELLRELLASLRRHDLLRRVDDFEAGAAAGAAPGEEDLCAAFNVICDNVGKDWRRLARQLKVSDTKIDSIEDRYPRNLTERVRESLRIWKNTEKENATVAHLVGALRSCQMNLVADLVQEVQQARDLQNRSGAMSPMSWNSDASTSEAS
# Variants of: B1
# Details: with FAS
row,Variant,effect of a mutation on the interaction
1,L172E,decreasing interaction
